Paper doi:10.1101/2025.04.28.650843 (bioRxiv, 2025)

Molecular target: the molecule itself
Assay: cryo-EM structure; single-particle reconstruction of intact PBS isolated from Synechococcus 7942 in 0.75 M K/Na-PO4 pH 7.0 with 0.0125% glutaraldehyde; diluted on the grid with 50 mM Tris pH 7.0; 2.98 Å

B1: phycocyanin (PC) (complex)
chain 1: not shown
chain 2: MTFDAFTKVVAQADARGEFLSDAQLDALSRLVAEGNKRIDTVNRITGNASSIVANAARALFAEQPSLIAPGGNAYTNRRMAACLRDMEIILRYVTYAVFTGDASILDDRCLNGLRETYLALGVPGASVAEGVRKMKDAAVAIVSDRNGITQGDCSAIISELGSYFDKAAAAVA
modifications: covalently attached phycocyanobilin (PCB), positions not printed | covalently attached phycocyanobilin (PCB), positions not given
notes: as m5; as m2; The alpha-beta monomer; it forms the hexamers of the peripheral rods (72 alpha-beta monomers in six rods of two hexamers each); also called alpha-beta monomer of phycocyanin
  stoichiometry N: 6
